According to the supplement of paper PMC7125110:
± gives the standard error. This sample holds only a part of the variants without activity.

B1: glmS ribozyme (parent)
chain: AUAAAAGCGCCAGAACUACAGAAAUGUAGUUGACGAGGAGGAGGUUUAUCGAAUUUUCGGCGGAUGCCUCCAAA

Variants of: B1
Experiment: self-cleavage kobs at 10000 uM GlcN6P; higher = faster cleavage; RNA array
Conditions: with glucosamine-6-phosphate
Outline: (§1)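 kobs was derived by fitting per-tile medians to one- or two-exponential decays after normalising signals to baseline and to non-cleaving reference variants. Those signals came from barcoded ribozyme variants transcribed in situ by E. coli RNA polymerase on sequenced MiSeq chips, followed through a hybridised Cy3 probe at 37 °C and imaged over ~14 h. Glucosamine-6-phosphate (40 μM to 10 mM) in HEPES/KCl/Mg(OAc)2 buffer was flowed in. Weighted Michaelis–Menten fits across concentrations then gave kcat and KM.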

Row | Variant | self-cleavage kobs at 10000 uM GlcN6P
1 | C10A G29U U55G C68G | 3.81e-05 ± 1.8e-05 s⁻¹
2 | A14U G35A A48G U54C C70G | < 1e-05 s⁻¹
3 | C16G G29A G32A | 0.00144 ± 0.00032 s⁻¹
4 | C8A A15U U47C U69A | < 1e-05 s⁻¹
5 | C11U C50G C70G | 3.88e-05 ± 1.4e-05 s⁻¹
6 | G29C A36C | < 1e-05 s⁻¹
7 | A12G A36U A48C A53C G66A C70G | < 1e-05 s⁻¹
8 | A12G G51C G60U | < 1e-05 s⁻¹
9 | G29A G43U G51A | < 1e-05 s⁻¹
10 | C16A U46C U55C | 7.09e-05 ± 1.6e-05 s⁻¹
11 | A33C A53G A64C | < 1e-05 s⁻¹
12 | G40A C58U C67G C71G | < 1e-05 s⁻¹
13 | C8U G41U A48U C71G | < 1e-05 s⁻¹
14 | U30A G44A C68G | < 1e-05 s⁻¹
15 | C11A U30C A39G | 0.000114 ± 2.3e-05 s⁻¹
16 | A6G U31C C34G | < 1e-05 s⁻¹
17 | A36C A39U U55A | < 1e-05 s⁻¹
18 | U30C U31G C70G | 0.000168 ± 4.5e-05 s⁻¹
19 | G7U G13U G63U | < 1e-05 s⁻¹
20 | C19A C34G | < 1e-05 s⁻¹
21 | A36C U69A C70U | 6.82e-05 ± 1.5e-05 s⁻¹
22 | A15G U65A G66U | 0.000274 ± 4.1e-05 s⁻¹
23 | A12U G37C U45A A48U C68U | < 1e-05 s⁻¹
24 | C8G A14G A33U | < 1e-05 s⁻¹

Row | Variant | self-cleavage kobs at 10000 uM GlcN6P
25 | C8G U45G U55C C71A | < 1e-05 s⁻¹
26 | A14G G44C C67U | 0.00278 ± 0.0013 s⁻¹
27 | G35C A39U G41C C61A | < 1e-05 s⁻¹
28 | C8U G32A A48U A53U U55A | < 1e-05 s⁻¹
29 | G44U A64U C67G | 6.97e-05 ± 1.6e-05 s⁻¹
30 | U27G A42U | 0.000136 ± 3e-05 s⁻¹
31 | A14C U45C A64G G66A | 0.000542 ± 9.2e-05 s⁻¹
32 | G41U G51U A53C | < 1e-05 s⁻¹
33 | A42G G59U | 4.33e-05 ± 9.8e-06 s⁻¹
34 | A36U G43U G63C | < 1e-05 s⁻¹
35 | A23C C68A | 5.82e-05 ± 2.4e-05 s⁻¹
36 | G41C G66C C68A | < 1e-05 s⁻¹
37 | U31A A36C | < 1e-05 s⁻¹
38 | A6U A36C C58G | < 1e-05 s⁻¹
39 | U30C G32A C70G | 7.6e-05 ± 1.7e-05 s⁻¹
40 | C16U A39G G40U | 0.0008 ± 0.00026 s⁻¹
41 | U47G A48U U56G C68A | 4.62e-05 ± 1.6e-05 s⁻¹
42 | G26U A53G U69G | 5.41e-05 ± 1.5e-05 s⁻¹
43 | A12U U30G A36U G41U A52U | < 1e-05 s⁻¹
44 | A33C G51A A64U | < 1e-05 s⁻¹
45 | G40U U47C G51A G59U C71U | < 1e-05 s⁻¹
46 | A14C G40A U47C | 0.000375 ± 7e-05 s⁻¹
47 | A12C C16A C67U | 0.000164 ± 3.3e-05 s⁻¹
48 | G43U G59C C68A | < 1e-05 s⁻¹

Row | Variant | self-cleavage kobs at 10000 uM GlcN6P
49 | C10A G13U G44A | < 1e-05 s⁻¹
50 | G13C G38U A48U C50A | < 1e-05 s⁻¹
51 | G35A G43C C67G C68G | 6.9e-05 ± 2e-05 s⁻¹
52 | C16U A53G U69G | 6.58e-05 ± 1.9e-05 s⁻¹
53 | A15G U31A A36G C58U | < 1e-05 s⁻¹
54 | U31C U47G C70G | 4.82e-05 ± 1.5e-05 s⁻¹
55 | G13U C58U | 6.77e-05 ± 6.2e-06 s⁻¹
56 | G38U A64U C71U | < 1e-05 s⁻¹
57 | G44A U56A G60C C68A | < 1e-05 s⁻¹
58 | U30C G41A U54C | < 1e-05 s⁻¹
59 | A12C A15U A52G | 0.000174 ± 3.6e-05 s⁻¹
60 | C11U A53G G60A | < 1e-05 s⁻¹
61 | A39G U56G C68U | 0.00322 ± 0.0012 s⁻¹
62 | G9A C11U U30C A52U G62U | < 1e-05 s⁻¹
63 | A15G G60A | 3.03e-05 ± 1.1e-05 s⁻¹
64 | U31C G40C U54C U56A A64U | < 1e-05 s⁻¹
65 | G13A U57G C70U | 3.53e-05 ± 1.7e-05 s⁻¹
66 | C8A G29U A52U U55A C71G | < 1e-05 s⁻¹
67 | C11U A39G C58G | 7.12e-05 ± 1.7e-05 s⁻¹
68 | A15G U56G C68G | 6.13e-05 ± 1.3e-05 s⁻¹
69 | A6C U31C G63U C71G | < 1e-05 s⁻¹
70 | G38A G44U A53G | < 1e-05 s⁻¹

Variants of: B1
Experiment: self-cleavage kobs at 2500 uM GlcN6P; higher = faster cleavage; RNA array
Conditions: with glucosamine-6-phosphate
Outline: as §1

Row | Variant | self-cleavage kobs at 2500 uM GlcN6P
71 | A52G C68U C70U | 0.000745 ± 0.00024 s⁻¹
72 | U45G G60A C67G C68U | < 1e-05 s⁻¹
73 | G43A U55C G59U C67G | < 1e-05 s⁻¹
74 | A53U U56A C68U | 0.000647 ± 0.00019 s⁻¹
75 | U45A U47A G59U C61A | < 1e-05 s⁻¹
76 | G44A A48G C67G | 8.88e-05 ± 2.9e-05 s⁻¹
77 | U47G A48U U56G C68A | 0.000324 ± 0.00012 s⁻¹
78 | A48G U49G A52U A53G | < 1e-05 s⁻¹
79 | C50A U65G C67A | 8.64e-05 ± 2.2e-05 s⁻¹
80 | G43A G44A U47A G59C | < 1e-05 s⁻¹
81 | G44U U46G C70U C71G | < 1e-05 s⁻¹
82 | A48C U55C G63U | < 1e-05 s⁻¹
83 | A48U G51A U57A | < 1e-05 s⁻¹
84 | G43A C50G U69G | < 1e-05 s⁻¹
85 | U56C C67A C71G | < 1e-05 s⁻¹
